The target in this test is CEACAM1-4L-HA (HA-tagged human CEACAM1) (human) (UniProt P13688).
Chain of UniProt P13688 (P13688 35-526): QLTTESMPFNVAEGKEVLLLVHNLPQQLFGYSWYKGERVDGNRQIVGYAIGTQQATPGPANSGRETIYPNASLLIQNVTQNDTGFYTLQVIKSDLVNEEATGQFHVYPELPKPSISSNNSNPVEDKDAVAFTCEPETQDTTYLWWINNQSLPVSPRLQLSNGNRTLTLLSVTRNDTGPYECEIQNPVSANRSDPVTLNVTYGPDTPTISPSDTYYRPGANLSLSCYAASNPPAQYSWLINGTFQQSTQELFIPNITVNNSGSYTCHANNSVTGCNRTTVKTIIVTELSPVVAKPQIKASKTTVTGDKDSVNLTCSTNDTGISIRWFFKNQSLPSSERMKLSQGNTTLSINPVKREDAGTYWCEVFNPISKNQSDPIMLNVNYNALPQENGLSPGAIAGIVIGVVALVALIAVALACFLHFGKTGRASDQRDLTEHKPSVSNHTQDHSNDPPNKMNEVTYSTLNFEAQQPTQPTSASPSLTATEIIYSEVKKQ

Substance “Opa52 protein of Neisseria gonorrhoeae strain MS11 (natural protein)” displayed an internalised OpaCEA-positive gonococci in CEACAM1-transfected 293 cells (gentamicin protection assay, 2 h) of 210000 cfu/ml.

(Values after publication PMC3029278.)
